The results in this text go back to patent publication US20130143299A1.

The target in this assay is human Erk2 (extracellular signal-regulated kinase 2), purchased from Sigma (human), P28482. Nature of the assay: ELISA, purified clone 500 ng/well on immobilised antigen, anti-FLAG-HRP detection. On the technique in general: An ELISA detects its analyte on a solid surface through an enzyme-linked reagent.
Chain of human Erk2 (extracellular signal-regulated kinase 2), purchased from Sigma (human), P28482 (P28482 whole entry): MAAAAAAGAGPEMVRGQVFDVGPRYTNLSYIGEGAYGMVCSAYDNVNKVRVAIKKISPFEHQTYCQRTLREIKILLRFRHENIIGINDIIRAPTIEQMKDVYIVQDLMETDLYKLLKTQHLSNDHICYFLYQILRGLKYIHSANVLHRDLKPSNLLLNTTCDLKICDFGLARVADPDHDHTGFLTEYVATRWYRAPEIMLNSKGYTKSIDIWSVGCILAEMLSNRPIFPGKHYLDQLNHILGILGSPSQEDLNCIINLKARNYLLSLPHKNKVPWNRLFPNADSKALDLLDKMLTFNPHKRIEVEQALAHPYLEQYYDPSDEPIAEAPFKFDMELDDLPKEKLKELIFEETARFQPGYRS

B1: Erk2-binding clone group J (RNF8-FHA domain-modified protein) (designed binder, not shown: large carriers)
chain: GEPGFFVTGDRAGGRSWCLRRVGMSAGWLLLEDGCEVTVGFGTGVTYQLVSKYLPSWFTYNHCVLKQNPEGQWTIMDNKSLTGVWLNRARLEPLRVYSIHQGDYIQLGSLREXSENAEYEYEVTEEDWETIYPCLSPKNDQMIEKN
modifications: not fully specified; X: residue not identified in the source; also: N-terminal MBP-Strep/FLAG fusion partner, sequence not given here
Consider B1, for which the ELISA (S/N) is 25.6 S/N.
